The assay has as its target T1, Peptide 29 (Pep29) (Plasmodium falciparum 3D7, also: biotin, position not given here).
T1 chain: NANPNANPNANPNAN
In words: BLI. (Biolayer interferometry detects binding as a change in optical thickness at a sensor tip.)

Consider two molecules from article PMC9242090 (The Journal of Experimental Medicine, 2022).

Substitutions are numbered along the chain they refer to. No end group written: not given here.

B1: CIS43_Var11 Fab (Fab, V domains shown)
VH: QRQLVQSGAEVKKPGASVKVSCKASGYTFTSYAIHWVRQAPGQRLEWMGWIKAGNGNTRYSQKFQDRVTITRDTSTTTAYMELSSLRSEDTAVYYCALLTVLTPDDAFDIWGQGTMVTVSS
VL: not shown
As to B1, the binding result is “binds”.

B2: CIS43_Var18 Fab (Fab, V domains shown)
VH: B1 VH with A97V
VL: not shown
In the case of B2, the binding result is “binds”.
